The values that follow come from the supplement of paper PMC7877785.

± gives the uncertainty stated by the source.

This data set in a line: self-splicing fitness, log relative to wild type (ln ratio); higher = more splicing; Tetrahymena group I intron in knt gene, E. coli kanamycin selection, DiMSum; sequences stand for … in CUCUCU…GGAGGGAAAAGUUAUCAGGCAUGCACCUGGUAGCUAGUCUUUAAACCAAUAGAUUGCAUCGGUUUAAAAGGCAAGACCGUCAAAUUGCGGGAAAGGGGUCAACAGCCGUUCAGUACCAAGUCUCAGGGGAAACUUUGAGAUGGCCUUGCAAAGGGUAUGGUAAUAAGCUGACGGACAUGGUCCUAACCACGCAGCCAAGUCCUAAGUCAACAGAUCUUCUGUUGAUAUGGAUGCAGUUCACAGACUAAAUGUCGGUCGGGGAAGAUGUAUUCUUCUCAUAAGAUAUAGUCGGACCUCUCCUUAAUGGGAGCUAGCGGAUGAAGUGAUGCAACACUGGAGCCGCUGGGAACUAAUUUGUAUGCGAAAGUAUAUUGAUUAGUUUUGGAGUACUCGUGGUCG
The gist of the method:
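DiMSum derived fitness as the error-weighted combination of fold changes across replicates, kanamycin versus no kanamycin, normalised to wild type. E. coli BL21(DE3) held the library, which randomised all eight P1ex-region intron nucleotides within the knt kanamycin-resistance gene on pET-22b(+). Six replicate transformations grew overnight at 37°C or 30°C on LB agar with or without 25 μg/mL kanamycin, also containing 100 μg/mL carbenicillin, 50 μM IPTG and 0.2% rhamnose, and pooled colonies were amplicon-sequenced on an Illumina HiSeq 2500.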

For AUAGAGCAAUAUUACGCUAG, the “self-splicing fitness (ln)” value was -1.01 ± 0.15 (30 °C) and -0.475 ± 0.15 (37 °C).
For AUAGAGCAAUAUUACGCUCC, the “self-splicing fitness (ln)” value by setting is: (30 °C) -0.896 ± 0.37; (37 °C) -1.91 ± 0.41.
The matching figures for AUAGAGCAAUAUUACGGACA: -2.38 ± 0.27 and -0.896 ± 0.33.
The matching figures for AUAGAGCAAUAUUACGGAGG: -3.24 ± 0.22 and -1.8 ± 0.23.
The matching figures for AUAGAGCAAUAUUACGGAUA: -2.83 ± 0.31 and -1.8 ± 0.39.
Consider AUAGAGCAAUAUUACGGAUG, for which the “self-splicing fitness (ln)” value is -1.43 ± 0.12 (30 °C) and -2.91 ± 0.31 (37 °C).
As to AUAGAGCAAUAUUACGGCUA, the “self-splicing fitness (ln)” value amounted to 0.361 ± 0.077 (30 °C) and 0.0589 ± 0.098 (37 °C).
The matching figures for AUAGAGCAAUAUUACGGGCA: -2.19 ± 0.097 and -1.28 ± 0.11.
Taken in the same sequence, the figures for AUAGAGCAAUAUUACGGGCU were -4.11 ± 0.27 and -2.51 ± 0.29.
Consider AUAGAGCAAUAUUACGGGGG, for which the “self-splicing fitness (ln)” value (30 °C) was -3.2 ± 0.27 and the “self-splicing fitness (ln)” value (37 °C) is -2.72 ± 0.4.
The matching figures for AUAGAGCAAUAUUACGGUAU: -0.341 ± 0.075 and -0.0895 ± 0.11.
Regarding AUAGAGCAAUAUUACGGUGU, the “self-splicing fitness (ln)” value was -1.24 ± 0.1 (30 °C) and -0.567 ± 0.15 (37 °C).
On to AUAGAGCAAUAUUACGGUUC, for which the “self-splicing fitness (ln)” value was -3.21 ± 0.24 (30 °C) and -1.29 ± 0.22 (37 °C).
For the sequence AUAGAGCAAUAUUACGUAGU, the “self-splicing fitness (ln)” value is, setting by setting: (30 °C) -1.69 ± 0.12; (37 °C) -0.153 ± 0.15.
For AUAGAGCAAUAUUACGUAUG, the “self-splicing fitness (ln)” value by setting is: (30 °C) -3.22 ± 0.17; (37 °C) -0.602 ± 0.14.
For AUAGAGCAAUAUUACGUGCU, the “self-splicing fitness (ln)” value (30 °C) was -1.24 ± 0.25.
As to AUAGAGCAAUAUUACGUGGA, the “self-splicing fitness (ln)” value by setting is: (30 °C) -3.98 ± 0.27; (37 °C) -3.39 ± 0.29.
For AUAGAGCAAUAUUACGUGGC, the “self-splicing fitness (ln)” value reads like this: (30 °C) -3.18 ± 0.4; (37 °C) -2.7 ± 0.26.
The matching figures for AUAGAGCAAUAUUACGUGUG: -1.61 ± 0.1 and -2.39 ± 0.2.
With AUAGAGCAAUAUUACGUUCA, the “self-splicing fitness (ln)” value (30 °C) stood at 0.258 ± 0.11 and the “self-splicing fitness (ln)” value (37 °C) was -0.633 ± 0.12.
Take AUAGAGCAAUAUUACGUUUC: the “self-splicing fitness (ln)” value was -3.32 ± 0.22 (30 °C) and -1.46 ± 0.24 (37 °C).
For AUAUAGCAAUAUUACGACCU, the “self-splicing fitness (ln)” value is, setting by setting: (30 °C) -0.348 ± 0.14; (37 °C) 0.267 ± 0.15.
Taken in the same sequence, the figures for AUAUAGCAAUAUUACGACGU were 0.51 ± 0.13 and 0.433 ± 0.17.
The matching figures for AUAUAGCAAUAUUACGAGAC: -3.02 ± 0.39 and -1.61 ± 0.49.
Taken in the same sequence, the figures for AUAUAGCAAUAUUACGAGUU were -3.19 ± 0.18 and -1.46 ± 0.15.
For AUAUAGCAAUAUUACGAUGG, the “self-splicing fitness (ln)” value was -3.07 ± 0.31 (30 °C) and -0.944 ± 0.26 (37 °C).
On to AUAUAGCAAUAUUACGCAGA, for which the “self-splicing fitness (ln)” value (30 °C) was -2.82 ± 0.31 and the “self-splicing fitness (ln)” value (37 °C) is -1.42 ± 0.21.
Taken in the same sequence, the figures for AUAUAGCAAUAUUACGCCCU were -0.155 ± 0.15 and 0.32 ± 0.18.
For the sequence AUAUAGCAAUAUUACGCCUU, the “self-splicing fitness (ln)” value by setting is: (30 °C) -1.01 ± 0.12; (37 °C) -0.431 ± 0.12.
For the sequence AUAUAGCAAUAUUACGCGUA, the “self-splicing fitness (ln)” value runs as follows: (30 °C) -1.11 ± 0.19; (37 °C) -0.256 ± 0.13.
Taken in the same sequence, the figures for AUAUAGCAAUAUUACGCGUC were -3.3 ± 0.26 and -2.26 ± 0.28.
With AUAUAGCAAUAUUACGCUCA, the “self-splicing fitness (ln)” value is, setting by setting: (30 °C) -0.563 ± 0.18; (37 °C) 0.319 ± 0.22.
As to AUAUAGCAAUAUUACGCUCG, the “self-splicing fitness (ln)” value (30 °C) is -0.992 ± 0.12 and the “self-splicing fitness (ln)” value (37 °C) is 0.0571 ± 0.18.
In the case of AUAUAGCAAUAUUACGCUUA, the “self-splicing fitness (ln)” value is -1.53 ± 0.16 (30 °C) and -0.0426 ± 0.15 (37 °C).
Taken in the same sequence, the figures for AUAUAGCAAUAUUACGGACU were -1.04 ± 0.11 and -0.14 ± 0.16.
Take AUAUAGCAAUAUUACGGCAU: the “self-splicing fitness (ln)” value was -0.195 ± 0.089 (30 °C) and 0.155 ± 0.12 (37 °C).
Regarding AUAUAGCAAUAUUACGGGAU, the “self-splicing fitness (ln)” value runs as follows: (30 °C) -2.27 ± 0.16; (37 °C) -0.966 ± 0.16.
Taken in the same sequence, the figures for AUAUAGCAAUAUUACGGGUC were -4.55 ± 0.46 and -2.17 ± 0.25.
